Laboratory results published in patent US6248712.

How the values were obtained:
[1] = target: u-PA bound to u-PAR on the cell surface (human) (UniProt P00749); assay: association rate constant from inhibition kinetics of plasminogen activation by u-PAR-bound u-PA on PMA-stimulated U937 cells
[2] = target: u-PA bound to u-PAR on the cell surface (human) (UniProt P00749); assay: inhibition kinetics, u-PAR-bound u-PA on PMA-stimulated U937 cells against u-PA in solution
[3] = target: u-PA bound to u-PAR on the cell surface (human) (UniProt P00749); assay: inhibition kinetics, u-PAR-bound u-PA on U937 cells against u-PA in solution
[4] = target: u-PA bound to u-PAR on the cell surface (human) (UniProt P00749); assay: association rate constant from inhibition kinetics of plasminogen activation by u-PAR-bound u-PA on U937 cells
[5] = target: human single-chain pro-u-PA (human) (UniProt P00749)
[6] = target: human urokinase-type plasminogen activator, active two-chain 54 kD form (human) (UniProt P00749)
[7] = target: u-PA bound to u-PAR on the cell surface (human) (UniProt P00749)

Sequence of plasminogen activator inhibitor type 2 (P05120 whole entry): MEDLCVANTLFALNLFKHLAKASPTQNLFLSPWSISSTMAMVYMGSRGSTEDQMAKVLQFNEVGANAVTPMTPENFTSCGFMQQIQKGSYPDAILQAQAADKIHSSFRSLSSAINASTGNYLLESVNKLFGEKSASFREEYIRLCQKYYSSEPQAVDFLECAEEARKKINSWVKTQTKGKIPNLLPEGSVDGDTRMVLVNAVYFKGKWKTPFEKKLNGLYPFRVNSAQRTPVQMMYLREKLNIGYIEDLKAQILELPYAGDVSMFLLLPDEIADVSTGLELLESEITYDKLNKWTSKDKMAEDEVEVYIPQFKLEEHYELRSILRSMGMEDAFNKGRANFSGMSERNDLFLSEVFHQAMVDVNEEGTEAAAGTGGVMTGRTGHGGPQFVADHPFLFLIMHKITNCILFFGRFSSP
Sequence of human plasmin (P00747 97-810 limits assumed): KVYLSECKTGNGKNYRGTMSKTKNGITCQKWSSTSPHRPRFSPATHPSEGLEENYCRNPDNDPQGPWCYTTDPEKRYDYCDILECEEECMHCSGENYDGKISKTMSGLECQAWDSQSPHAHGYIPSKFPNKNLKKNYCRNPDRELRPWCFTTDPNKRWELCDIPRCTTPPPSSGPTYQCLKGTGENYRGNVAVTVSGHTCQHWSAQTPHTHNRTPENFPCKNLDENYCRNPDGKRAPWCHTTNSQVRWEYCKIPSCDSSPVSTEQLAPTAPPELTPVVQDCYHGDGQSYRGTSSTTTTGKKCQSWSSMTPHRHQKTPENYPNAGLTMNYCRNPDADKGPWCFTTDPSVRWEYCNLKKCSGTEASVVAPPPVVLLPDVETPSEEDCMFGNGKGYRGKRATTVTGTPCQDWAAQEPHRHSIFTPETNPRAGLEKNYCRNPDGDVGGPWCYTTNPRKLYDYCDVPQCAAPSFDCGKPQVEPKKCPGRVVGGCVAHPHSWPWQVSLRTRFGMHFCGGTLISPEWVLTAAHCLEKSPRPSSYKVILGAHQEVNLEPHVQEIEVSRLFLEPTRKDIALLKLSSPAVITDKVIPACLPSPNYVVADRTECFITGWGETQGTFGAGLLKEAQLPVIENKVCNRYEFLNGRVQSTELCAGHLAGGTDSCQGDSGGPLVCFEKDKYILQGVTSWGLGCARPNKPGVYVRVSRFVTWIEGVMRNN

kon [1]	rate of inhibition relative to u-PA in solution [2]	rate of inhibition relative to u-PA in solution [3]	kon [4]	generation of u-PA amidolytic activity from pro-u-PA (ng/ml equivalent two-chain u-PA per min) [5]	Bound plasmin activity (%) at 3 h and 17 h; u-PA activity in medium (%) [6]	association-rate constant relative to u-PA in solution [3]	Bound plasmin activity (%) after preincubation of the cells and washing [7]	Substance
1.7e+06 M⁻¹ s⁻¹	20%	60%	4.5e+06 M⁻¹ s⁻¹					plasminogen activator inhibitor type 1 (from UniProt P05121)
				0.6				human plasmin (from UniProt P00747) (enzyme)
110000 M⁻¹ s⁻¹			330000 M⁻¹ s⁻¹		48%	60%	54%	plasminogen activator inhibitor type 2 (from UniProt P05120)
